Earlier results, collected in publication PMC12493190.

Experiments:
[1] = target: parkin pUbl Ubl (Homo sapiens) (UniProt O60260)
[2] = target: phospho-ubiquitin (Homo sapiens) (UniProt P0CG47)

Sequence of parkin RING0 (O60260 141-225): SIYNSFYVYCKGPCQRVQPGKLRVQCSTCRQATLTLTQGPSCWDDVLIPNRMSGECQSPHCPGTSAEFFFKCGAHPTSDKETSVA
Sequence of parkin pUbl Ubl (Homo sapiens) (O60260 1-76): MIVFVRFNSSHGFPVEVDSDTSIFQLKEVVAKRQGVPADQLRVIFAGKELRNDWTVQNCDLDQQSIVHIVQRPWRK

Substance: parkin RING0 (from UniProt O60260)
- Kd [1]: 1000 nM
- Kd [2]: 400 nM
